The test system of assay [1] is Akt kinase in human Schwann cells. In words: Kinase assay of Akt in vitro (GSK-3α substrate) from Schwann cell lysates. It counts as cell-based. Particulars: CD 500 ng/ml, 2 minutes.
The test system is the same in assay [2]. As to the kind of experiment: Immunodetection of activated Akt (Ser473) in Schwann cells.
Procedure: Schwann cells, grown in 10% FCS to 70% confluency in 6-well plates, were switched to DMEM containing 0.1% FCS for 48 hours to reduce basal Akt phosphorylation. Then the cells were placed in serum-free DMEM medium for 2 hours and challenged with TS, CD or other test factors for predetermined periods of time. When the PI-3 kinase inhibitor LY294002 (Sigma) was used, the inhibitor was added to the serum-starved cells 30 minutes before challenge with TS or CD. Cell samples were lysed with lysis buffer (20 mM Tris, pH7.5, 150 mM NaCl, 1 mM EDTA, 1% Triton X-100 (t-Octylphenoxypolyethoxyethanol), 2.5 mM sodium pyrophosphate, 1 mM glycerophosphate, 1 mM Na3VO4, 1 μg/ml leupeptin and 1 mM Phenymethylsulfonyl fluoride (PMSF)). Samples (40 μg) were run on 10% SDS-Page, blotted to nitrocellulose paper and analyzed by Western (immuno) blot with monoclonal antibody specific for P-Ser473 of Akt (New England Biolabs). Reaction was visualized by chemiluminescence using the ECL kit (New England Nuclear).
Schwann cells were seeded in 10% FCS to 50-70% confluency in 10 cm Petri dishes 24 h prior transfection, performed in serum-free DMEM. Cells were maintained in 10% FCS for 24 hr and then switched to medium containing 700 μg/ml G418 (Gibco BRL) and 2% FCS for 3 days and 0.1% FCS for another 4 days with CD added to some cell monolayers. After this cells were assessed for viability by Trypan blue exclusion and by DAPI staining. At the same time cell lysates were analyzed for Akt phosphoryltion by Western (immuno) blots with monoclonal antibody specific for P-Ser473 of Akt (New England Biolabs). Reaction was visualized by chemiluminescence using the ECL kit (New England Nuclear).
The test system of a further assay is Bcl-2 mRNA in PC12 cells. As to the kind of experiment: RT-PCR of Bcl-2 gene transcripts in PC12 cells. It is filed as cell-based, rat. Here is the method:
Total RNA was extracted from PC12 cells by the acid guanidinum isothiocyanate method (Chomchinski, P., et al., Biotechniques 15: 532-535 (1993)) using TRI-reagent (Molecular Research Center, Inc.). cDNA synthesis was performed according to the instruction of the manufacturer (Gibco-BRL). Reverse transcription reactions were carried out for 50 minutes at 42° C. and were heated to 70° C. for 15 minutes to terminate the reaction using a MiniCycler (MJ Research). Samples were cooled to 4° C. and stored at −20° C. until use.
PCR reactions were performed in 50 μl containing 1.5 μl of template DNA (corresponding to cDNA synthesized from 100 ng of total RNA), 1×PCR buffer, 100 μM of deoxynucleotides, 2.5 mM MgCl2, 10 mM DTT, 10 pM of Bcl-2 primers, and 2 U of Taq DNA polymerase (Gibco-BRL). The synthetic DNA primers for the rat Bcl-2 were: 5′-[…]-3′ (SEQ ID NO:8) and 5′-[…]-3′(SEQ ID NO:9) to give a PCR product of 566 bp. The sequences for synthetic GAPDH DNA primers (Wong, H., et al., Anal. Biochem. 223: 251-258 (1994)) were: 5′-[…]-3′ (SEQ ID NO:10) and 5′-[…]-3′ (SEQ ID NO:11) giving a PCR produce of 306 base pairs. Amplifications were carried out in MiniCycler (MJ Research) using following conditions: 98° C. for 5 minutes (initial heat denaturation), 3 cycles of 94° C. for 1 minute, 63° C. for 1 minute, 72° C. for 1.5 minutes; 3 cycles of 94° C. for 1 minutes, 60° C. for 1 minute, 72° C. for 1.5 minutes, followed by 72° C. for 10 minutes. Primers for GAPDH (10 pM) were added at cycle 7 by the “primer-dropping” method. Aliquots of PCR reaction products were separated by electrophoresis in 2% agarose gels (Ultrapure, Gibco-BRL), containing 0.2 μg/ml ethidium bromide. Gels were analyzed by computerized densitometric scanning using Gel doc 1000 (Bio Rad) and Molecular Analyst Software, version 2.1.

The next assay concerns normal human neutrophils. In words: IL-6 production by normal human neutrophils. It is filed as cell-based.
Another assay concerns DS-1 B-lymphoma cells. In words: Bioassay for IL-6 with IL-6 dependent DS-1 cells. It is filed as cell-based, human. Particulars: conditioned media of PBMC or T-24 cells (TS 1 μg/ml, 24 hr) diluted into IL-6 free media; or TS 1 μg/ml directly. As to the method: Bioassay for IL-6 was performed using IL-6 dependent human DS-1 cells (Bock et al., Cytokine 5: 480-489 (1993), ATCC Accession No. CRL-11102). Briefly, 1×10^4 cells/well were plated in 96-well plates and incubated for 24 hrs in IL-6-free medium (10% FCS in RPMI) containing several dilutions of TS-conditioned media or exogenous rIL-6. The cultures were pulsed with 0.5 μCi ^3H-thymidine for 4 hrs and harvested to determine radioactivity incorporation using a microplate scintillation instrument (Packard). In some studies, a neutralizing anti-IL-6 rabbit IgG or normal rabbit IgG (Endogen) was added to the dilutions of TS-conditioned prior to assaying for growth-stimulation of DS-1 cells. TS conditioned media was prepared by incubating PBMC or T-24 cells for 24 hr in 10% FCS/RPMI without (CM) or with (TS/CM) TS at 1 μg/ml. Supernatants were centrifuged at 1,000×g to remove cell debris and were kept frozen at −20° C. until use.

The next assay relates to IL-6 mRNA in PBMC. As to the kind of experiment: RT-PCR of IL-6 mRNA in PBMC. It counts as cell-based, human. Here is the method:
Semiquantitative analysis of cytokine mRNA was performed by the primer-dropping method (Wong et al., Anal. Biochem. 223:251-258, […])). […] Two μg of total RNA were converted to cDNA in a volume of 20 μl using random hexamer primers according to the manufacturer's instructions (GIBCO-BRL). Synthetic DNA primers for human IL-6 were 5′[…] (SEQ ID NO:24) and 5′[…] (SEQ ID NO:25), and for GAPDH were those described in Example 1 (SEQ ID NO: 10 and SEQ ID NO:11). The PCR mixture contained 20 mM Tris-HCl pH 8.4, 50 mM KCl, 1.5 mM MgCl2, 1 mM dNTP, 200 pM primers and 1 U of Taq polymerase in 50 μl. Thermal cycling conditions were: denaturation step 95 degrees for 5 min; 35 cycles of 95 degrees 30 sec, 60 degrees 30 sec and 75 degrees 1 min, and a final step of 75 degrees for 5 min. At cycle number 9, GAPDH primers were added. Five microliters of the PCR product were alalyzed by electrophoresis through 2% agarose-gel in the presence of 1 μg/ml ethidium bromide.

For assay [3], the system named is human intestinal microvascular endothelial cells (HIMEC). In words: Other cytokines and chemokines in HIMEC supernatants (ELISA). It counts as cell-based. Particulars: 24 hrs; bacterial LPS 50 ng/ml. Here is the method:
Endothelial cells and T-24 cells were plated on 24-well plates at a density of 1×10^3 cells/well, while peripheral blood mononuclear cells (PBMC) were plated in the similar wells at 1×10^6/well. Triplicat cultures of cells were incubated test agents for a predetermined amount of time. […] Cytokines and chemokines released in the culture supernatants were measured by ELISA assay following the instructions of the manufacturer (Endogen). The cytokines tested were IL-1β, IL-4, IL-8, IL-10, IL-12, IFN-γ, TNF-α, and the chemokines RANTES and MCP-1. Negative controls were cells incubated in medium containing polymixin B at 10 μg/ml, and positive controls were cells incubated with bacterial LPS at the low ng/ml range (for PBMC or HIMEC) or in the μg/ml range for carcinoma T-24 cells. In some experiments, IL-1β, or TNFα were used as positive control for cytokine release.
(In an ELISA, binding on a coated surface is turned into a signal by an enzyme label.)

Entries after “also recorded” stand apart in the source; their conditions may differ.

B1: TS-F: recombinant full catalytic domain of TS, amino acid residues 33-666, His-tagged, expressed in E. coli (protein, listed as Trypanosoma cruzi)
chain: ETQIAIKNSRVSSVSRVVDPTVIVKGNKLYVLVGSYYSSRSYWSSHGDARDWDILLAVGEVTKSTAGGKITASIKWGSPVSLKKFFPAEMEGMHTNQFLGGAGVAIVASNGNLVYPVQVTNKRKQVFSKIFYSEDDGKTWKFGKGRSDFGCSEPVALEWEGKLIINTRVDWKRRLVYESSDMEKPWVEAVGTVSRVWGPSPKSNQPGSQTSFTAVTIEGMRVMLFTHPLNFKGRCVRDRLNLWLTDNQRIYNVGQVSIGDENSAYSSVLYKDDKLYCLHEINTDEVYSLVFARLVGELRIIKSVLRSWKNWTATCPAFAPLLIQPLRRQRVVVVPLSPRLVLLAFCRQRLPKRMGGSYRCVNASTANAERVRNGLKFAGVGGGALWPVSQQGQNQRYRFANHAFTLVASVTIHEAPRAASPLLGASLDSSGGKKLLGLSYDEKHQWQPIYGSTPVTPTGSWETGKRYHLVLTMANKIGSVYIDGELLEGSGQTVVPDGRTPDISHFYVGGYKRSDMPTISHVTVNNVLLYNRRQLNTEEIRTLFLSQDLIGTEAHMDSSSDSSAHSTPSTPADSSAHSTPSTPVDSSAHSTPSTPADSSAHGTPSTPVDSSAHGTPSTPADSSAHGTPSTPVDS
modifications: His tag
notes: recombinant full catalytic domain of TS, amino acid residues 33-666, His-tagged, expressed in E. coli
As for B1, in assay [1], the “Akt kinase activity in control GFP-transfected Schwann cells” value was “stimulation of Akt activity”. The “Akt kinase activity in Schwann cells over expressing AktKI” value in assay [1] (listed as CD) is “inability of CD to enhance endogenous Akt enzymatic activity; also recorded: did not activate Akt kinase”. Besides, in assay [2] (CD 500 ng/ml), the “Akt phosphorylation in Schwann cells transfected with PTEN mutant pG129R” value was “did not detectably enhance”, the “phospho-Akt in Schwann cells transfected with empty vector (neo)” value is “boosted levels of phospho-Akt”, the “time after which phospho-Akt not detected” value turned out to be 15 min and the “time to activation of Schwann cell Akt kinase” value lay within 1 to 5 min. Moreover, the “phosphorylation/activation of Akt kinase in human Schwann cells” value in assay [2] (CD 500 ng/ml where stated, Western blot P-Akt (Ser473), listed as CD) is recorded as “induced transient phosphorylation of Akt kinase”. Also, the “phospho-Akt in Schwann cells over expressing PTEN” value in assay [2] (CD 500 ng/ml, listed as CD) is “did not result in the generation of phospho-Akt; also recorded: did not induce phosphorylation of Akt kinase”.

B2: TS: T. cruzi trans-sialidase purified by immuno-affinity chromatography from supernatants of infected Vero cells (SEQ ID NO:2, SEQ ID NO:34) (protein, listed as Trypanosoma cruzi)
chain: MVAIADARYETSSENSLIDTVAKYSVDDGETWETQIAIKNSRVSSVSRVVDPTVIVKGNKLYVLVGSYYSSRSYWSSHGDARDWDILLAVGEVTKSTAGGKITASIKWGSPVSLKKFFPAEMEGMHTNQFLGGAGVAIVASNGNLVYPVQVTNKRKQVFSKIFYSEDDGKTWKFGKGRSDFGCSEPVALEWEGKLIINTRVDWKRRLVYESSDMEKPWVEAVGTVSRVWGPSPKSNQPGSQTSFTAVTIEGMRVMLFTHPLNFKGRCVRDRLNLWLTDNQRIYNVGQVSIGDENSAYSSVLYKDDKLYCLHEINTDEVYSLVFARLVGELRIIKSVLRSWKNWTATCPAFAPLLIQPLRRQRVVVVPLSPRLVLLAFCRQRLPKRMGGSYRCVNASTANAERVRNGLKFAGVGGGALWPVSQQGQNQRYRFANHAFTLVASVTIHEAPRAASPLLGASLDSSGGKKLLGLSYDEKHQWQPIYGSTPVTPTGSWETGKRYHLVLTMANKIGSVYIDGELLEGSGQTVVPDGRTPDISHFYVGGYKRSDMPTISHVTVNNVLLYNRRQLNTEEIRTLFLSQDLIGTEAHMDSSSDSSAHSTPSTPADSSAHSTPSTPVDSSAHSTPSTPADSSAHGTPSTPVDSSAHGTPSTPADSSAHGTPSTPVDSSAHSTPSTPVDSSAHSTPSTPVDSSAHGAPSTPADSSAHGTPSTPVDSSAHGTPSTPADSSAHSTPSTPADSSAHSTPSTPADSSAHSTPSTPVDSSAHGTPSTPADSSAHSTPSTPADSSAHGTPSTPVDSSAHSTPSTPVDSSAHGTPSTPVDSSAHSTPSTPVDSSAHGTPSTPVDSSAHSTPSTPADSSAHSTPSTPADSSAHGTPSTPVDSSAHSTPSTPADSSAHSTPSTPVDSSAHSTPSTPADSSAHGTPSTPVDSSAHGTPSTPADSSAHSTPSTPADSSAHSTPSTPADSSAHSTPSTPVDSSAHSTPSTPADSSAHSTPSTPADSSAHSTPSTPADSSAHSTPSTPVDSSAHSTPSTPADSSAHGTPSTPADSSAHSTPSTPVDSSAHSTPSTPADSSAHGTPSTPADSSAHSTPSTPADSSAHGTPSTPADSSAHSTPSTPAGSSANGTVLILPDGAALSTFSGGGLLLCACALLLHVFFMAVF
As to B2, the “bcl-2 gene expression in PC12 cells” value in the assay with Bcl-2 mRNA in PC12 cells (TS 2.5 ng/ml, CNTF 50 ng/ml, alone or combined, 17 hours) was “did not induce bcl-2 gene expression individually”. Besides, the “expression of Bcl-2 mRNA in PC12 cells” value with Bcl-2 mRNA in PC12 cells (TS 100 and 200 ng/ml, 17 hours serum-free) was “dramatically increased Bcl-2 mRNA; also recorded: induces the expression of Bcl-2 mRNA”. In addition, in the assay on normal human neutrophils, the “IL-6 production by normal human neutrophils” value was “did not produce detectable IL-6”. In the assay with DS-1 B-lymphoma cells, the “proliferation/growth of IL-6-dependent DS-1 cells” value was “did not restore growth of the DS-1 cells; also recorded: did not induce proliferation”. Moreover, in the assay with IL-6 mRNA in PBMC (TS 1 μg/ml, 4, 10 or 24 hours), the “expression of IL-6 mRNA in PBMC” value is reported as “induces expression of IL-6 mRNA”. Further, in the assay with IL-6 mRNA in PBMC (after TS stimulation), the “time of maximal upregulation of IL-6 transcripts” value lay in the range of 4 to 10 h. Besides, the “concentration of other cytokines (IL-1β, IL-4, IL-8, IL-10, IL-12, INF-γ, TNF-α, RANTES, MCP-1) in HIMEC supernatants” value in assay [3] is “did not increase”.
